Data: article PMC7205207, “Modeling and mitigation of high-concentration antibody viscosity through structure-based computer-aided protein design” (PLoS ONE, 2020)

B1: R1-002 (antibody, V domains shown)
VH: EVQLLQSGGGLVQPGGSLRLSCAASGFTFSSYAMSWVRQAPGKGLEWVSYISDDGSLKYYADSVKGRFTISRDNSKNTLYLQMNSLRAEDTAVYYCARHPYWYGGQLDLWGQGTLVTVSS
VL: SYELTQPPSVSVSPGQTASITCSGDSLGSYFVHWYQQKPGQSPVLVIYDDSNRPSGIPERFSGSNSGNTATLTISGTQAMDEADYYCSAFTHNSDVFGGGTKLTVL
notes: VL of AB-001 (AB-001_LC); only the variable regions are written; source: HEK293, transient, purified from conditioned medium (protein A, TMAE, HIC)
B2: R1-003 (antibody, V domains shown)
VH: EVQLLESGGGLVKPGGSLRLSCAASGFTFSSYAMSWVRQAPGKGLEWVSYISDDGSLKYYADSVKGRFTISRDNSKNTLYLQMNSLRAEDTAVYYCARHPYWYGGQLDLWGQGTLVTVSS
VL: SYELTQPPSVSVSPGQTASITCSGDSLGSYFVHWYQQKPGQSPVLVIYDDSNRPSGIPERFSGSNSGNTATLTISGTQAMDEADYYCSAFTHNSDVFGGGTKLTVL
notes: as for B1
B3: R1-004 (antibody, V domains shown)
VH: EVQLLESGGGLVQPGGSLRLSCRASGFTFSSYAMSWVRQAPGKGLEWVSYISDDGSLKYYADSVKGRFTISRDNSKNTLYLQMNSLRAEDTAVYYCARHPYWYGGQLDLWGQGTLVTVSS
VL: SYELTQPPSVSVSPGQTASITCSGDSLGSYFVHWYQQKPGQSPVLVIYDDSNRPSGIPERFSGSNSGNTATLTISGTQAMDEADYYCSAFTHNSDVFGGGTKLTVL
notes: as for B1
B4: R1-005 (antibody, V domains shown)
VH: EVQLLESGGGLVQPGGSLRLSCAASGFTFSSYAMSWVRQAPGKGLEWVSYISNDGSLKYYADSVKGRFTISRDNSKNTLYLQMNSLRAEDTAVYYCARHPYWYGGQLDLWGQGTLVTVSS
VL: SYELTQPPSVSVSPGQTASITCSGDSLGSYFVHWYQQKPGQSPVLVIYDDSNRPSGIPERFSGSNSGNTATLTISGTQAMDEADYYCSAFTHNSDVFGGGTKLTVL
notes: as for B1
B5: R1-006 (antibody, V domains shown)
VH: EVQLLESGGGLVQPGGSLRLSCAASGFTFSSYAMSWVRQAPGKGLEWVSYISDDGSLKYYADSVKGRFTISRDNSKNTLYLQMNSLRAEDTAVYYCARHPYWYGGRLDLWGQGTLVTVSS
VL: SYELTQPPSVSVSPGQTASITCSGDSLGSYFVHWYQQKPGQSPVLVIYDDSNRPSGIPERFSGSNSGNTATLTISGTQAMDEADYYCSAFTHNSDVFGGGTKLTVL
notes: as for B1
B6: R1-007 (antibody, V domains shown)
VH: EVQLLQSGGGLVKPGGSLRLSCAASGFTFSSYAMSWVRQAPGKGLEWVSYISDDGSLKYYADSVKGRFTISRDNSKNTLYLQMNSLRAEDTAVYYCARHPYWYGGQLDLWGQGTLVTVSS
VL: SYELTQPPSVSVSPGQTASITCSGDSLGSYFVHWYQQKPGQSPVLVIYDDSNRPSGIPERFSGSNSGNTATLTISGTQAMDEADYYCSAFTHNSDVFGGGTKLTVL
notes: as for B1
B7: R1-008 (antibody, V domains shown)
VH: EVQLLESGGGLVQPGGSLRLSCAASGFTFSSYAMSWVRQAPGKGLEWVSYISDDGSLKYYADSVKGRFTISRDNSKNTLYLQMNSLRAEDTAVYYCAKHPYWYGGQLDLWGQGTLVTVSS
VL: SYVLTQPPSVSVSPGQTASITCSGDSLGSYFVHWYQQKPGQSPVLVIYDDSNRPSGIPERFSGSNSGNTATLTISGTQAMDEADYYCSAFTHNSDVFGGGTKLTVL
notes: VH of AB-001 (AB-001_HC); Kabat position; only the variable regions are written; source: HEK293, transient, purified from conditioned medium (protein A, TMAE, HIC)
B8: R1-009 (antibody, V domains shown)
VH: EVQLLESGGGLVQPGGSLRLSCAASGFTFSSYAMSWVRQAPGKGLEWVSYISDDGSLKYYADSVKGRFTISRDNSKNTLYLQMNSLRAEDTAVYYCAKHPYWYGGQLDLWGQGTLVTVSS
VL: SYELTQPPSVSVSPGQRASITCSGDSLGSYFVHWYQQKPGQSPVLVIYDDSNRPSGIPERFSGSNSGNTATLTISGTQAMDEADYYCSAFTHNSDVFGGGTKLTVL
notes: VH of AB-001 (AB-001_HC); only the variable regions are written; source: HEK293, transient, purified from conditioned medium (protein A, TMAE, HIC)
B9: R1-010 (antibody, V domains shown)
VH: EVQLLESGGGLVQPGGSLRLSCAASGFTFSSYAMSWVRQAPGKGLEWVSYISDDGSLKYYADSVKGRFTISRDNSKNTLYLQMNSLRAEDTAVYYCAKHPYWYGGQLDLWGQGTLVTVSS
VL: SYELTQPPSVSVSPGQTASITCSGDSLGSYFVHWYQQKPGQSPVLVIYDDSKRPSGIPERFSGSNSGNTATLTISGTQAMDEADYYCSAFTHNSDVFGGGTKLTVL
notes: as for B8
B10: R1-011 (antibody, V domains shown)
VH: EVQLLESGGGLVQPGGSLRLSCAASGFTFSSYAMSWVRQAPGKGLEWVSYISDDGSLKYYADSVKGRFTISRDNSKNTLYLQMNSLRAEDTAVYYCAKHPYWYGGQLDLWGQGTLVTVSS
VL: SYELTQPPSVSVSPGQTASITCSGDSLGSYFVHWYQQKPGQSPVLVIYDDSNRPSGIPERFSGSNSGNTATLTISGTQAMDEADYYCSAFTHNSNVFGGGTKLTVL
notes: as for B8
B11: R1-012 (antibody, V domains shown)
VH: EVQLLQSGGGLVKPGGSLRLSCAASGFTFSSYAMSWVRQAPGKGLEWVSYISDDGSLKYYADSVKGRFTISRDNSKNTLYLQMNSLRAEDTAVYYCARHPYWYGGQLDLWGQGTLVTVSS
VL: SYVLTQPPSVSVSPGQTASITCSGDSLGSYFVHWYQQKPGQSPVLVIYDDSNRPSGIPERFSGSNSGNTATLTISGTQAMDEADYYCSAFTHNSDVFGGGTKLTVL
notes: Kabat position; only the variable regions are written; source: HEK293, transient, purified from conditioned medium (protein A, TMAE, HIC)
B12: R1-013 (antibody, V domains shown)
VH: EVQLLQSGGGLVQPGGSLRLSCAASGFTFSSYAMSWVRQAPGKGLEWVSYISDDGSLKYYADSVKGRFTISRDNSKNTLYLQMNSLRAEDTAVYYCARHPYWYGGQLDLWGQGTLVTVSS
VL: SYELTQPPSVSVSPGQRASITCSGDSLGSYFVHWYQQKPGQSPVLVIYDDSNRPSGIPERFSGSNSGNTATLTISGTQAMDEADYYCSAFTHNSDVFGGGTKLTVL
notes: only the variable regions are written; source: HEK293, transient, purified from conditioned medium (protein A, TMAE, HIC)
B13: R1-014 (antibody, V domains shown)
VH: EVQLLQSGGGLVKPGGSLRLSCAASGFTFSSYAMSWVRQAPGKGLEWVSYISDDGSLKYYADSVKGRFTISRDNSKNTLYLQMNSLRAEDTAVYYCARHPYWYGGQLDLWGQGTLVTVSS
VL: SYELTQPPSVSVSPGQRASITCSGDSLGSYFVHWYQQKPGQSPVLVIYDDSNRPSGIPERFSGSNSGNTATLTISGTQAMDEADYYCSAFTHNSDVFGGGTKLTVL
notes: as for B12
B14: R1-015 (antibody, V domains shown)
VH: EVQLLQSGGGLVKPGGSLRLSCAASGFTFSSYAMSWVRQAPGKGLEWVSYISDDGSLKYYADSVKGRFTISRDNSKNTLYLQMNSLRAEDTAVYYCARHPYWYGGQLDLWGQGTLVTVSS
VL: SYELTQPPSVSVSPGQTASITCSGDSLGSYFVHWYQQKPGQSPVLVIYDDSNRPSGIPERFSGSNSGNTATLTISGTQAMDEADYYCSAFTHNSNVFGGGTKLTVL
notes: as for B12
B15: R1-017 (antibody, V domains shown)
VH: EVQLLESGGGLVKPGGSLRLSCAASGFTFSSYAMSWVRQAPGKGLEWVSYISDDGSLKYYADSVKGRFTISRDNSKNTLYLQMNSLRAEDTAVYYCARHPYWYGGQLDLWGQGTLVTVSS
VL: SYELTQPPSVSVSPGQRASITCSGDSLGSYFVHWYQQKPGQSPVLVIYDDSNRPSGIPERFSGSNSGNTATLTISGTQAMDEADYYCSAFTHNSDVFGGGTKLTVL
notes: as for B12
B16: R1-018 (antibody, V domains shown)
VH: EVQLLESGGGLVQPGGSLRLSCAASGFTFSSYAMSWVRQAPGKGLEWVSYISDDGSLKYYADSVKGRFTISRDNSKNTLYLQMNSLRAEDTAVYYCARHPYWYGGRLDLWGQGTLVTVSS
VL: SYELTQPPSVSVSPGQRASITCSGDSLGSYFVHWYQQKPGQSPVLVIYDDSNRPSGIPERFSGSNSGNTATLTISGTQAMDEADYYCSAFTHNSDVFGGGTKLTVL
notes: as for B12
B17: R2-004 (antibody, V domains shown)
VH: EVQLLQSGGGLVKPGGSLRLSCAASGFTFSSYAMSWVRQAPGKGLEWVSYISDDGSLKYYADSVKGRFTISRDNSKNTLYLQMNSLRAEDTAVYYCARHPYWYGGQLDLWGQGTLVTVSS
VL: SYVLTQPPSVSVAPGKTARITCSGDSLGSYFVHWYQQKPGQSPVLVIHDDSKRPSGIPERFSGSNSGNTATLTISGTQAMDEADYYCSAFTHNSDVFGGGTKLTVL
notes: as the VH of m20 (R2-001_HC); as the VL of m20 (R2-001_LC) with Y49H (Kabat); only the variable regions are written; source: HEK293, transient, purified from conditioned medium (protein A, TMAE, HIC)
B18: R2-005 (antibody, V domains shown)
VH: EVQLLQSGGGLVKPGGSLRLSCAASGFTFSSYAMSWVRQAPGKGLEWVSYISDDGSLKYYADSVKGRFTISRDNSKNTLYLQMNSLRAEDTAVYYCARHPYWYGGQLDLWGQGTLVTVSS
VL: SYVLTQPPSVSVAPGKTARITCSGDSLGSYFVHWYQQKPGQSPVLVIRDDSKRPSGIPERFSGSNSGNTATLTISGTQAMDEADYYCSAFTHNSDVFGGGTKLTVL
notes: as the VH of m20 (R2-001_HC); as the VL of m20 (R2-001_LC) with Y49R (Kabat); only the variable regions are written; source: HEK293, transient, purified from conditioned medium (protein A, TMAE, HIC)
B19: R2-007 (antibody, V domains shown)
VH: EVQLLQSGGGLVKPGGSLRLSCAASGFTFSSYAMSWVRQAPGKGLEWVSYISDDGSLKYYADSVKGRFTISRDNSKNTLYLQMNSLRAEDTAVYYCARHPYWYGGQLDLWGQGTLVTVSS
VL: SYVLTQPPSVSVAPGKTARITCSGDSLGSYFVHWYQQKPGQSPVLVIYDDSKRPSGIPERFSGKNSGNTATLTISGTQAMDEADYYCSAFTHNSDVFGGGTKLTVL
notes: as the VH of m20 (R2-001_HC); as the VL of m20 (R2-001_LC) with S65K (Kabat); only the variable regions are written; source: HEK293, transient, purified from conditioned medium (protein A, TMAE, HIC)
B20: R2-008 (antibody, V domains shown)
VH: EVQLLQSGGGLVKPGGSLRLSCAASGFTFSSYAMSWVRQAPGKGLEWVSYISDDGSLKYYADSVKGRFTISRDNSKNTLYLQMNSLRAEDTAVYYCARHPYWYGGQLDLWGQGTLVTVSS
VL: SYVLTQPPSVSVAPGKTARITCSGDSLGSYFVHWYQQKPGQSPVLVIYDDSKRPSGIPERFSGSNKGNTATLTISGTQAMDEADYYCSAFTHNSDVFGGGTKLTVL
notes: as the VH of m20 (R2-001_HC); as the VL of m20 (R2-001_LC) with S67K (Kabat); only the variable regions are written; source: HEK293, transient, purified from conditioned medium (protein A, TMAE, HIC)
B21: R2-009 (antibody, V domains shown)
VH: EVQLLQSGGGLVKPGGSLRLSCAASGFTFSSYAMSWVRQAPGKGLEWVSYISDDGSLKYYADSVKGRFTISRDNSKNTLYLQMNSLRAEDTAVYYCARHPYWYGGQLDLWGQGTLVTVSS
VL: SYVLTQPPSVSVAPGKTARITCSGDSLGSYFVHWYQQKPGQSPVLVIYDDSKRPSGIPERFSGSNSKNTATLTISGTQAMDEADYYCSAFTHNSDVFGGGTKLTVL
notes: as the VH of m20 (R2-001_HC); as the VL of m20 (R2-001_LC) with G68K (Kabat); only the variable regions are written; source: HEK293, transient, purified from conditioned medium (protein A, TMAE, HIC)

biological target: T1, human PDGF-BB (platelet derived growth factor B homodimer) (human, UniProt P01127); assay: SPR; Biacore T200, off-rate screen; antibody captured (~70 to 100 RU) by anti-human IgG amine-coupled to a CM5 chip; human PDGF-BB injected at a single 2.5 nM for 170 s, dissociation 300 s; HBS-EP+ N (10 mM HEPES, 500 mM NaCl, 3 mM EDTA, 0.05% Tween20, pH 7.4); 25 C; conditions: both partners purified
T1 construct: Platelet derived growth factor B, human, homodimer, bought from PeproTech; the printed catalogue number may stand for 100-14B; source: bought: PeproTech, Catalog 100-148
T1 sequence (P01127 82-190): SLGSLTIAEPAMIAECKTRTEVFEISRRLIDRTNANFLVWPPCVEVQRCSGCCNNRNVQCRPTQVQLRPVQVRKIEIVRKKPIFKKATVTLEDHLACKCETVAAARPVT

Binder	koff [s⁻¹]
B1	0.00038
B2	0.000443
B3	0.000258
B4	0.000381
B5	0.000314
B6	0.000282
B7	0.000533
B8	0.000393
B9	0.000372
B10	0.00086
B11	0.000304
B12	0.000297
B13	0.000405
B14	0.000752
B15	0.000471
B16	0.000419
B17	0.000439
B18	0.000348
B19	0.000401
B20	0.000396
B21	0.000265
